# Measurements taken from US20140120095A1 (Boehringer Ingelheim, published 2014).
# T1: VEGFB (UniProt P49765-2 22-188, limits assumed)
# T1 sequence (looked up): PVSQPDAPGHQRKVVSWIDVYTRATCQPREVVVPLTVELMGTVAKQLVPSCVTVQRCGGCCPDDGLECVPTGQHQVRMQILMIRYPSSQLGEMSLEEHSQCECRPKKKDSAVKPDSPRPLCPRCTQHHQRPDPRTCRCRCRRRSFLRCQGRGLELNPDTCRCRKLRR
# T2: VEGFD (UniProt O43915 93-201, limits assumed)
# T2 sequence (looked up): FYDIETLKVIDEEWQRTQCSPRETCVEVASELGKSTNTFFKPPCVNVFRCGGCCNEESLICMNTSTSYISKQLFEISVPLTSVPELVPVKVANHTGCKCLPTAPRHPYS
# T3: VEGFC (UniProt P49767 103-227, limits assumed)
# T3 sequence (looked up): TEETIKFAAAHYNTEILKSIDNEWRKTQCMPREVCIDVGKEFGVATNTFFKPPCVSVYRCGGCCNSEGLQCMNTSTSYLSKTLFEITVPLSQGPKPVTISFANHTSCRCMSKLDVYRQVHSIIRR
# T4: PIGF (UniProt P49763-2 21-149, limits assumed)
# T4 construct: also called placenta growth factor
# T4 sequence (looked up): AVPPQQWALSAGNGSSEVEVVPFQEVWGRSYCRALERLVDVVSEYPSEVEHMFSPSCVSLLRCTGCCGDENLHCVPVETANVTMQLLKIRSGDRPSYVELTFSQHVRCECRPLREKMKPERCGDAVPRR
# B1: DLLBII17F10 (VHH)
# VHH: EVQLVESGGGLVQAGGSLRLSCASSGRTLLNYAMGWFRQAPGKEREFVSGINWSGGSTYYADSVKGRFTISRDNAENTVYLHMNSLKPEDTAVYYCAAAHDNYWFTDDSLGRGLKYWGQGTQVTVSS
# B2: DLLBII17B03 (VHH)
# VHH: EVQLVESGGGLVQPGGSLRLSCAASGFTFENYALGWFRQAPGKEREWVSCISSSDGTTYYADSVKGRFTISRDNVKNTVYLQMNRLKPEDTAIYYCALSLGSSWCAYDYWGQGTQVTVSS
# B3: VEGFBII23A06 (VHH)
# VHH: EVQLVESGGGLVQPGDSLKLSCAFSGRTFSSYSMGWFRQAQGKEREFVVAISSGGFIYDAVSLEGRFTISRDNTKNTVYLQTPSLKPEDTAVYYCAASRAYGSSRLRLADTYDYWGQGTQVTVSS
# B4: VEGFBII5B05 (VHH)
# VHH: EVQLVESGGGLVQPGGSLRLSCVASGIRFMSMAWYRQAPGKHRELVARISSGGTTAYVDSVKGRFTISRDNSKNTVYLQMNSLKAEDTAVYYCNTFSSRPNPWGAGTQVTVSS
# notes: also called VEGFBII05B05; VEGFBII5B05(wt)
# B5: VEGFBII032 (VHH)
# VHH: EVQLVESGGGLVQPGGSLRLSCAASGIRFISMAWYRQAPGKQRELVARISSGGTTAYADSVKGRFTISRDNSKNTVYLQMNSLRAEDTAVYYCNTFSSRPNPWGQGTLVTVSS
# notes: also called VEGFBII0032
# B6: VEGFBII23B04 (VHH)
# VHH: EVQLVESGGGLVQTGDSLRLSCEVSGRTFSSYSMGWFRQAQGKEREFVVAISKGGYKYDSVSLEGRFTISKDNAKNTVYLQINSLKPEDTAVYYCASSRAYGSSRLRLADTYEYWGQGTQVTVSS
# notes: also called VEGFBII23B4
# Assays:
# [1] = target: T5, recombinant human DLL4 (human, UniProt Q9NR61 25-522); experiment: Biacore off-rate, periplasmic extract; heterogeneous fit, fast off-rate
# T5 construct: also called rhDLL4; hDLL4
# T5 sequence (Q9NR61 25-522): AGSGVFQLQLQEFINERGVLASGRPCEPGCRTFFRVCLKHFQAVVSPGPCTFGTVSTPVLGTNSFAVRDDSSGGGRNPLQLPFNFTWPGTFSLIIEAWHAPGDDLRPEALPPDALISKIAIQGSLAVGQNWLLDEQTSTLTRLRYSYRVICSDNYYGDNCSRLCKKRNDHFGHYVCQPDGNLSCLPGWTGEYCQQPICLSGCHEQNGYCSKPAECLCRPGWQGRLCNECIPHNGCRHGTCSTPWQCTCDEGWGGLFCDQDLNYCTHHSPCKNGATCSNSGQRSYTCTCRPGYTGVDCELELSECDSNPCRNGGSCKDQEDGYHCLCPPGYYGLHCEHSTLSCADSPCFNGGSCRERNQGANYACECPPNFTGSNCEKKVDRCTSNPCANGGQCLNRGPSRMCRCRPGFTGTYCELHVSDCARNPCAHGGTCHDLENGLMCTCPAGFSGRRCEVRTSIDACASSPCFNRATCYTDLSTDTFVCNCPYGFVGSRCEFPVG
# [2] = target: T5, recombinant human DLL4; experiment: hDLL4 ELISA screen, periplasmic extract
# [3] = target: T5, recombinant human DLL4; experiment: Biacore off-rate, periplasmic extract; heterogeneous fit, slow off-rate
# [4] = target: T5, recombinant human DLL4; experiment: binding ELISA, coated rhDLL4
# Method: In order to determine cross-reactivity to mouse DII4 a binding ELISA is performed. […] Wells are blocked with a casein solution (1% in PBS). VHHs are applied as dilution series and binding is detected using a mouse anti-myc (Roche) and an anti-mouse-AP conjugate (Sigma, St Louis, Mo., USA) (FIG. 7 A-H). As reference, binding to human DII4 is measured.
# [5] = target: T5, recombinant human DLL4; experiment: AlphaScreen biot-hDLL4/hNotch1-Fc, periplasmic extract
# [6] = target: T1, VEGFB; experiment: solid phase binding ELISA, 500 nM-32 pM VHH
# Method: (§1) Binding to VEGFB, VEGFC, VEGFD and PIGF is assessed via a solid phase binding ELISA. […] Wells are blocked with a casein solution (1% in PBS). […] As positive controls serial dilutions of the appropriate receptors are taken along and detected with horseradish peroxidase (HRP)-conjugated goat anti-human IgG, Fc specific antibody (Jackson Immuno Research Laboratories Inc., West Grove, Pa., USA) and a subsequent enzymatic reaction in the presence of the substrate TMB (3,3′,5,5′-tetramentylbenzidine) (Pierce, Rockford, Ill., USA).
# [7] = target: T2, VEGFD; experiment: solid phase binding ELISA, 500 nM-32 pM VHH
# Method: as §1
# [8] = target: T3, VEGFC; experiment: solid phase binding ELISA, 500 nM-32 pM VHH
# Method: as §1
# [9] = target: T4, PIGF; experiment: solid phase binding ELISA, 500 nM-32 pM VHH
# Method: as §1
# [10] = target: T6, recombinant human VEGF165 (human, UniProt P15692-4 27-191, biotinylated in the competition assays); experiment: SPR Biacore, hVEGF165
# T6 construct: Bought protein; also called hVEGF165; rhVEGF165
# Method: Samples are injected for 2 min and allowed to dissociate up to 20 min at a flow rate of 45 μl/min. In between sample injections, the chip surface is regenerated with 100 mM HCl. HBS-EP+(Hepes buffer pH7.4+EDTA) is used as running buffer. Binding curves are fitted using a Two State Reaction model by Biacore T100 Evaluation Software v2.0.1.
# [11] = target: T6, recombinant human VEGF165; experiment: ProteOn off-rate assay, periplasmic extract on coated hVEGF165
# Method: One additional variant is constructed in which the potential oxidation site at position M30 (CDR1 region, see FIG. 38 indicated as bold italic residue) is removed by introduction of a M30I mutation. […] Off-rates are calculated and compared to the off-rates of the parental VEGFBII5B05.
binder,measurement,setting,value
B1,koff,[1],0.0011 s⁻¹
same,% inh,[2],98%
same,koff,[3],0.00031 s⁻¹
same,EC50,[4],0.9 nM
same,% inh,[5],88%
B2,koff,[1],0.0012 s⁻¹
same,% inh,[2],76%
same,koff,[3],0.00022 s⁻¹
same,% inh,[5],77%
B3,binding result,[6],no binding (tested: 500 nM)
same,binding result,[7],no binding (tested: 500 nM)
same,binding result,[8],no binding (tested: 500 nM)
same,binding result,[9],no binding (tested: 500 nM)
B4,Kd,[10],32 nM
same,binding level (RU),[11],242 RU
same,koff,[11],0.0615 s⁻¹
B5,Kd,[10],44 nM
B6,binding result,[6],no binding (tested: 500 nM)
same,binding result,[7],no binding (tested: 500 nM)
same,binding result,[8],no binding (tested: 500 nM)
same,binding result,[9],no binding (tested: 500 nM)
